Reference: US20240124857A1, “COMPOSITION FOR GUT HEALTH” (DUPONT NUTRITION BIOSCIENCES APS, priority 2021, published 2024)

What was measured:
[1] = pH profile of enzymes on 1 mM ATP; format: biochemical; details: 50 mM trisodium citrate/citric acid, 5 mM CaCl2, relative to the highest value
Method: The pH profile of additional enzymes of interest was assayed using 1 mM ATP, in 50 mM trisodium citrate/citric acid buffer with 5 mM CaCl2. Absorbance was read at 620 nm and all values were set relative to the highest one. Commercial potato apyrase was used as reference. […]

[2] = ATPase activity at 0.05 ppm enzyme on 0.1 mM ATP (absorbance 620 nm); format: biochemical; details: for Activity on ATP (absorbance at 620 nm, blank subtracted), pH 5.0: 50 mM IVIES buffer pH 5; for Activity on ATP (absorbance at 620 nm, blank subtracted), pH 6.0: 50 mM IVIES buffer pH 6
Method: Enzyme activity towards ATP or ADP at pH 3 to 9: The ability of candidate enzymes to degrade ATP or ADP to AMP and free phosphate (Pi) was measured using a standard malachite green phosphate detection kit (Sigma Aldrich cat no. MAK307). The enzyme reactions were carried out in 96-well plates with a total volume of 150 μL and contained 250 μM of a substrate, 50 mM of a buffer, 5 mM CaCl2, and a variable concentration of enzyme. The substrate was ATP or ADP. The buffer was glycine (pH 3), acetate (pH 4, 4.5, 5), bis-Tris (pH 5.5, 6, 6.5), or Tris (pH 7, 8, 9). The concentration of enzyme varied from about 1 μg/mL to 1 ng/mL and was adjusted based on the activity of the enzyme so that the amount of phosphate released during the assay was with the dynamic range of the assay (5-100 μM phosphate). The enzyme concentration was determined by the absorbance at 280 nm and using the predicted molecular weight and molar extinction coefficient to calculate the concentration. The enzyme reaction was initiated by the addition of 15 μL enzyme with 135 μL of the other reaction components such that the final reaction composition was as previously described. The reaction was stopped after 5 min by mixing 80 μL of the reaction mixture with 20 μL of the malachite green working reagent. The malachite green working reagent was prepared according to the manufacturer's protocol by mixing 100 parts reagent A with 1 part reagent B. Phosphate standard solutions (0-80 μM) and a negative control reaction without enzyme were also mixed with the malachite green working reagent. All samples were tested in duplicate. The malachite green reaction mixture was allowed to rest at room temperature for 45-60 min and the absorbance at 620 nm was measured. Lastly, the absorbance of the phosphate standards were used to convert the absorbance readings of each sample into phosphate concentrations and the negative control was subtracted from each reaction.
Enzymes of interest were assayed against ATP substrate. The ATPase activity was measured at 0.05 ppm concentration in 50 mM IVIES buffer pH 6 and pH 5 with 0.1 mM ATP as substrate as described in Example 1. Commercial potato apyrase was used as reference. The absorbance at 620 nm was measured and the absorbance of a blank sample (water) was subtracted from each sample.

Molecule | Relative activity on ATP, pH 3 [1] | Relative activity on ATP, pH 3.5 [1] | Relative activity on ATP, pH 4 [1] | Relative activity on ATP, pH 4.5 [1] | Relative activity on ATP, pH 5 [1] | Relative activity on ATP, pH 5.5 [1] | Relative activity on ATP, pH 6 [1] | Relative activity on ATP, pH 6.5 [1] | Activity on ATP (absorbance at 620 nm, blank subtracted), pH 5.0 [2] | Activity on ATP (absorbance at 620 nm, blank subtracted), pH 6.0 [2]
CRC25099: Acid phosphatase (Class A), accession WP_195761705.1, SEQ ID NO:23 (protein, listed as Pantoea sp.) LQSSGFLTAETAPDSLAILPPPPAENSVTFQSDKAQYEAGHVLRNVARTELASKDADYKNFGQAFSAAFGMEISESHTPVLYHLLSEVLQDSHDFAMRGAKDHYKRVRPFVIYKDSTCTPDKDKSMSTTGSYPSGHASFGWAAALILAEINPSRETEIIRRGYDFGESRVVCGAHWQSDVENGRIMGATVVASLHANAKFAELLSQAKNEFATLSAQDSK | 0.0 | 0.1 | 0.3 | 0.7 | 0.8 | 1.0 | 0.8 | 0.5 | 1.05 | 0.93
CRC25084: Acid phosphatase (Class A), accession WP_088823167.1, SEQ ID NO:20 (protein, listed as Acinetobacter apis) ADSNNSFLQLNQVPDSLKIVPAPPAFNSVDFLRDKAAYDQARSLVGTARWQQAAVDADLSDANIGKSFSEAFGVEISPTNTPVTYEILRKLRTDAGGYATKTAKEHYMRMRPFVFFNSHTCTPNDEASLSKNGAYPSGHTTIGWSSALILAEIRPDRQNEILERGYQYGQSRVICGVHWQSDVDAGRITGSAIVARLHADKDFAKTLEDAKREIQKKIK | 0.4 | 0.6 | 0.6 | 0.9 | 0.9 | 1.0 | 1.0 | 0.9 | 0.20 | 0.17
CRC22104: GDA1/CD39 family enzyme, accession TAL58835.1, SEQ ID NO:7 (protein, listed as Legionella sp.) IEQDPCQEKQCMIVVDAGSTGSRLHFYTYDTDETNSPINIEEIWSKRIKPGISHVEANRSSIDAYLVTLLAGTPHSNHVPVYFYATAGMRLLPAAKQKLIYQEIKFWFAQQNQWRLMDAKTIYGSQEALYDWLAVNHQLGTLQSVQTKSVGVMDMGGASVQIVFPVQNNPDLKNNTLAEFNLYGQHIRLAVRSFLGLGQTEMSHQFLNYAPCFANNYPLPDGFLGEGDALSCVEEVASLMNGVHSVNKEIQPLLAANPVNIWYAIGGLSFLADNSVIHFNNYQLTNEQLLQQVDSKICHQEWDVLDEQFPNEEYLYQFCLLSAYYYALMVEGYGLLPNETINYLPSSQNLDWTIGVVLYPRLTVLQ | 0.0 | 0.0 | 0.0 | 0.3 | 0.8 | 0.9 | 1.0 | 1.0 | 0.05 | 0.10
CRC25100: Acid phosphatase (Class A), internal database, SEQ ID NO:24 (protein, environmental sample) GENSGFLSPETSPNSLEILPPPPSEGSIAFLNDKANYDIGHTLKNEGRLAQAVSDANYKNLTDAFSKAFGETISEQNTPALYSLLQNVLQDSHDFAMRAAKDHYKRVRPFVIYKDHTCTPAEDTKMAKTGSYPSGHASFGWATALVLSEINPARETEILKRGYEFGQSRVICGAHWQSDVDSGRIMGAAVVASLHNNSDFISALAKAKEEFRKK | 0.0 | 0.0 | 0.1 | 0.4 | 0.8 | 1.0 | 1.0 | 0.7 | 1.11 | 0.90
CRC25089: Acid phosphatase (Class A), accession WP_217352265.1, SEQ ID NO:22 (protein, listed as Paraburkholderia bonniea) AGSDGFLTAETAPSSLAILPPPPAENTVAFLNDKANYEIGRSLKNDARVALAASDANCKNINAIFSSAFGREISEEKTPKLYRLLLGVLQDSHDHAMKSAKNHYMRVRPFVMYGDKTCTPEEDNKMKNTGSYPSGHASFGWAAALVLSEINPERTTEILRRGYDFGQSRVVCGAHWQSDVDNGRLMGAAVVADLHNNDKFIKALEAAKAEFKENTPGN | 0.8 | 1.0 | 0.9 | 0.9 | 0.8 | 0.7 | 0.3 | 0.2 | 0.24 | 0.05
CRC25082: Acid phosphatase (Class A), accession WP_050460978.1, SEQ ID NO:19 (protein, listed as Herbaspirillum autotrophicum) KGAAGFLNGQTAPDSLAILPPPPAEDSVAFQADKAQYETGHVLRDPERVEQARQDADYRNFGHAFSAAFGMEISATHTPVLYQLLTEVLQDSHDYAMKAAKNHYKRVRPFVVYKDPTCTPGQDEKMALSGSYPSGHASFGWAAALVLAEINPARQTEILQRGYAFGKSRVICGAHWQSDVDNGQLMGAAVVAALHSNSQFAAALNAAKNEFAGLRAQDNKK | 0.0 | 0.0 | 0.0 | 0.1 | 0.3 | 0.7 | 1.0 | 0.8 | 0.93 | 0.65
CRC25085: Acid phosphatase (Class A), accession WP_092747651.1, SEQ ID NO:21 (protein, listed as Acinetobacter boissieri) LEQSNSFLQLAQVPDSLAIVPAPPAYNSVDFLRDKAAYDQAKSLVGTERWKVAAEDADLSDANIGKPFSQALGIEISPQNTPITYEILRKLRTDAGNYATKAAKEHYMRLRPFMFFNSHTCTPNDEANLSKNGAYPSGHTTIGWSSALVLAEIRPERQNEILQRGYEYGQSRVICGVHWQSDVDAGRITGSAIVARLHADKAFTKMLEEAKQEIQRKTK | 0.5 | 0.6 | 0.8 | 0.9 | 0.9 | 1.0 | 0.8 | 0.9 | 0.23 | 0.20
